From article PMC4872103

Legend:
[1] = biological target: T1, PU.1 ETS domain (PU.1ΔN167) (murine, UniProt P17433 167-272); assay: fluorescence anisotropy
[2] = biological target: T1, PU.1 ETS domain (PU.1ΔN167); assay: competition
[3] = biological target: T1, PU.1 ETS domain (PU.1ΔN167); assay: competition; remark: listed apart in the source

B1: Alexa Fluor 488 end-labeled duplex (dsDNA)
DNA 1: CAAGCGGAAGTGAG
DNA 2: CTCACTTCCGCTTG
binding result [1]: binds

B2: NS (dsDNA)
DNA 1: GCGAATAAGCGAGAGTGAAACCG
DNA 2: CGGTTTCACTCTCGCTTATTCGC
binding result [2]: no binding

B3: [5']AGC (dsDNA)
DNA 1: GCGAATAAGCGGAAGTGAAACCG
DNA 2: CGGTTTCACTTCCGCTTATTCGC
binding signal [3]: ~1 Kd ratio to Cy3-[5']AGC (equal within experimental uncertainty)
